# Data reported in IntAct's records for PubMed 22085930.
# B1: Ubiquitin-conjugating enzyme E2-21 kDa (Saccharomyces cerevisiae), P29340 (parent)
# chain: MPNFWILENRRSYTSDTCMSRIVKEYKVILKTLASDDPIANPYRGIIESLNPIDETDLSKWEAIISGPSDTPYENHQFRILIEVPSSYPMNPPKISFMQNNILHCNVKSATGEICLNILKPEEWTPVWDLLHCVHAVWRLLREPVCDSPLDVDIGNIIRCGDMSAYQGIVKYFLAERERINNH
# partner: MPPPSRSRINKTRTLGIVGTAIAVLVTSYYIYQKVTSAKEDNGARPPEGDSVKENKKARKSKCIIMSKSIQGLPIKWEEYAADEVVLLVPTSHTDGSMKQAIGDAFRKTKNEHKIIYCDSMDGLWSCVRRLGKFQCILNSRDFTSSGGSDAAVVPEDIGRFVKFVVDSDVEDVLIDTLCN
# B2: Peroxisome assembly protein 22 (Saccharomyces cerevisiae), P39718 (parent)
# chain: B1 partner
# partner: B1 chain
# Variants of: B1
# Details: with pex22_yeast PEX22, P39718
row,effect of a mutation on the interaction,Variant
1,disrupting interaction,MPNFWILENRRSYTSDTCMSRIVKEYKVILKTLASDDPIANPYRGIIESLNPIDETDLSKWEAIISGPSDTPYENHQFRILIEVPSSYPMNPPKISFMQNNILHCNVKSATGEICLNILKPEEWTPVWDLLHCVHAVWRLLREPVCDSPLDVDIGNIIRCGDMSAYQGIVKAFLAERERINNH [Y172A]

# Variants of: B1
# Details: with pex22_yeast PEX22, P39718
# Remark: another data set of the same source
row,effect of a mutation on the interaction,Variant
1,decreasing interaction,MPNFWILENRRSYTSDTCMSRIVKEYKVILKTLASDDPIANPYRGIIESLNPIDETDLSKWEAIISGPSDTPYENHQFRILIEVPSSYPMNPPKISFMQNNILHCNVKSATGEICLNILKPEEWTPVWDLLHCVHAVWRLLREPVCDSPLDVDIGNIIRCGDMSAYQGIVKFFLAERERINNH [Y172F]

# Variants of: B2
# Details: with ubcx_yeast PEX4, P29340
row,effect of a mutation on the interaction,Variant
1,decreasing interaction,MPPPSRSRINKTRTLGIVGTAIAVLVTSYYIYQKVTSAKEDNGARPPEGDSVKENKKARKSKCIIMSKSIQGLPIKWEEYAADEVVLLVPTSHTDGSMKQAIGDAFRKTKNEHKIIYCDSMDGLWSCVRRLGAFQCILNSRDFTSSGGSDAAVVPEDIGRFVKFVVDSDVEDVLIDTLCN [K133A]
